Source: the nanobody polyreactivity screen of Harvey et al. (2022)

Test: yeast display, Sf9 membrane polyspecificity reagent, FACS + sequencing; frameworks hold sequencing errors
Method in brief: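 Galactose-induced (36–48 hours) yeast carrying a synthetic nanobody display library were exposed to 10% biotinylated, detergent-solubilized Sf9 membrane reagent at 4 °C for 1 hour. FACS followed streptavidin microbead enrichment, using low and high (top ~1%) gates for expression (anti-HA) and reagent binding (streptavidin). Colony PCR, MiSeq 2 × 250 sequencing and CDR-length filtering followed. Labels for polyreactivity reflect the gate of origin.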

Row | Sequence | polyreactivity (PSR sort gate)
1 | QVQLVESGGGLVQAGGRLRISCAASGSTFKANAMGWYRQSPGKERELVASIRFSAGSTYYADSVKGRFTISRDTAKNTVYLEMNRLKPEDTAVYYCAAGRHVLKRRYDYWGQGTQVTVSS | low polyreactivity
2 | QVQLVESGGGLVQAGGSLRLSCAASGITFTKYVMRWYRQAPGKERELVATIRWGASSTHYADSVKGRFTISRDNAKNTVYLQMNSLKPEDTAVYYCNADGWYGAVYWWFYGFDYWGQGTQVTVSS | low polyreactivity
3 | QVQLVESGGGLVQAGGSLRLSCAASGRIFSYYAMGWYRQAPGKERELVASISRSGGSTYYADSVKGRFTISRDNAKNTVYLQMNSLKPEDTAVYYCAAYKYVRSYPYDYWGQGTQVTVSS | low polyreactivity
4 | QVQLVESGGGLVQAGGSLRLSCAASGFIFRQYAMGWYIQAPGKERELVAAITWSGTRTYYADSVKGRFTISRDNAKNTVYLQMNSLKPEDTAVYYCNAGYPKYGYDYWGQGTQVTVSS | high polyreactivity
5 | QVQLVESGGGLVQAGGSLRLSCAASGNISLPYTMGWYRQAPGKERELVAAISWDGGRTYYADSVKGRFTISRDNAKNTDYLQMNSLKPEDTAVYYCGARFFLVTLDYWGQGTQVTVSS | low polyreactivity
6 | KVQLVESGGSLVQAGGSLRLSSAASGRIITGYAMGWYRQAPGKEWELVAAITGSCVSTYYADSVKGRFTISRDNSKNTVYLQMNSLKPEDTAVYYCAARRYYGYVHWGQGTQVTVSS | high polyreactivity
7 | QVQLVESGGGLVQAGGSLRLICAASGSTFIINAMGWYRQAPGKERELVARITQRGTSTFYADSVKGRFTISRDNAKNTVYLQMNSLKPEDTAVYYCAARGSKSLGNKYDYWGQGTQVTVSS | high polyreactivity
8 | QVQLVESGGGFVQAGGSLRLSCAASGRIFKWYAMGWYIQAPGKERELVAAITSGGSTYYADSVKGRFTISRDNAKNTVYLQMNSLKPEDTAVYYCNTALTRWYNQYDYWGQGTLVTVSS | high polyreactivity
9 | QVQLVESGGGLVQAGGSLRLSCAASGRIFTTYVMGWYRQAPGKERELVAAISARGSTYYADSVKGRFTISRDNAKNTVYLQMNSLKPEDTAVYYCAAGHRLPVYYGYPRATYNYWGQGTQVTVSS | low polyreactivity
10 | QVQLVESGGGLVQAGGSLRLSCAASGSTFFDYAMGWYRQAPGKEREFVAAISRSGDTNYADSVKGRFTISRDNAKNTVYLQMNSLKPEDTAVYYCAKDWAYRRHWVGFYYWGQGTQVTVSS | low polyreactivity
11 | QVQLVESGGGLVQAGGSLRLSCAASGSTFYAYTMGWYRQAPGKARELFGTISSSGGRTNYADSVKGRFTISRDNAKNTVYLQMNSLKPEDTAVYYCAARSRVRNLVNGYTGLWYDYWGQGTQVTVSS | high polyreactivity
12 | QVQLVESGGGLVQAGGSLRLSCAASGRIITYYAMGWYRQAPGKERELVAAITASGSRTYYADSVKGRFTISRDNAKNTVYLQMNSLKPEDTAVYYCAALSRLSPLSGSYYWGQGTQVTVSS | high polyreactivity
13 | QVQLVESGGGLLQAGGSLRLSCAASGITFQGYAMGWYRQAPGKERELVAAITYRGGSTYYADSVKGRFTISRDNAKNTVYLQMNSLKPEDTAVYYCARDHSRHLHPSWLDYWGQGTQVTVSS | high polyreactivity
14 | QVQLVESGGGLVQAGGSLRLICAASGFTFDFYAMGWYRQAPGKERELVATISYSGASTYYADSVKGRFTISRDNAKNTVYLEMNSLKPEVTAVYYCAAYYPTRYQYGTIWVAYNYWGQGTQVTVSS | low polyreactivity
15 | QVQLVESGGGLVQAGGSLRLSCAASGSIFYRYTMGWSRQAPGKERELVAAITYSGGSTYYADSVKGRFTISRDNAKNTVYLQMNSLIPEDTAVYYCNKDYYSGQSGYNYWGQGTQVTVSS | low polyreactivity
16 | QVQLVESGGCLVQAGGSLRLSCAASGRTFDVYAMGWYRQAPGKERELVATIRSDGSTTYADSVKGRFTISRDNAKNTVYLQMNSLKPEDTAVYYCAADFRSGFSSSTTPVQSDWGQGTQVTVSS | low polyreactivity
17 | QVQLVESGGGLVQAGGSLRLSCAASGSIFVKYAMGWYRQAPGKERELVAAISRSGGSTYYADSVKGRFTISRDNAKNTVYLQMNSLKPEDTAVYYCAASNYKGMNYWGQGTQVTVSS | high polyreactivity
18 | HVQLVESGGGLVQAGGSLRLSCAASGTFYKNAMGWYRQAPGKERELVAAISWRGGRTYADSVKGRFTISRDNAKNSVYLQMNSLKPEDTAVYYCNKRFYPEHYYWGQGTQVTVSS | high polyreactivity
19 | QVQLVESGGGLVQAGGSLRLSCAASGIIFYYYAMGWYRQAPGKERELVAAISWSGGSTYYADSVKGRFTISRDNAKNTVYLQMNSLKPEDTAVYYCAADYTGHIYYYWGQGTQVTVSS | low polyreactivity
20 | QVQLVESGGGLVQAGGSLRLSCAASGRTLRQYAMGWYRQAPGKERELVAAISRGGSTTYADSVKGRFTISRDNAKNTVYIQMNSLKPEDTAVYYCAAVSSKGNRHEYDYWGQGTQVTVSS | low polyreactivity
21 | QVQLEESGGGLVQAGGSLRLSCAASGFTFIRYAMGWYRQAPGTERELVAAIRGTGTSTYYADSVKGRFTISRDNAKNTVYLQMNSLKPEDTAVYYCNKVAGRSPYTRYDYWGQGTQVTVSS | low polyreactivity
22 | QVQLVESGGGLVQAGGSLRLSCAASGRTFGFYAMGWYRQAPGKERELVATITYRGSGGSTYYADSVKGRFTISRDNAKNTVYLQMNSLKPEDTAVYYCAADKRYSRYFSFDYWGQGTQVTVSS | high polyreactivity

Row | Sequence | polyreactivity (PSR sort gate)
23 | QVQLVESGGGLVQAGGSLRLSCAASGSTFHQNTMGWYRQAPVKEREMVAAISWTGGGTYYADSVKGRYTISRDNAKNTVYLQMNSLKPEDTAVYYCAADYSDFWGFRYYYWGQGTQVNVSS | low polyreactivity
24 | QVQLVDSGGGLVQAGGSLRLSCAASGINFQGNAMGWYRQAPGKERELVASITAGGDTTYYADSVKGRFTISRDNAKNTVYLQMNSLKPEDTAVYYCAVDSWLDADDSYPDSILVDYWGQGTQVTVSS | low polyreactivity
25 | QVQLVESGGGLVQAGGSLRLSCAASGSTFYYNAMGWYRQAPGKERELVADISWRGGITYYADSVKGRFTISRDNAKNTVYLQMNSLKPEDTAVYYCNADAESFDDGYWGQGTQVTVSS | low polyreactivity
26 | QVQLVESGGGLVQAGGSLRLSCAASGRTIVLYVMGWYRQAPGKEREFVADINAGGGSTYYADSVKGRFTISRDNAKNTVYLQMNSLKPEDTSVYYCAATRDLGQLFRFGYWGQSTQVTVSS | low polyreactivity
27 | QFQLVESGGGLVQAAGSLRLSCAASGSTFVSNAMGWYRQAPGKDRELVAAITRSGGSTRDADSVKGRLTISRDNAKNTGYLQMNSLKPEDTAVYYCAAPHKYYGLRYYYWGQGTQVTVSS | high polyreactivity
28 | QVQLVESGGGLVQAGGSLRLSCAASGSTFRYYAMGWYRQAPGKERELVAAISRSGTSTYYADSVKGRFTISRDNAKKTVYLQMNSLKPEDTAVYYCAADWHSKIGKGYDYWGQGTQVTVSS | high polyreactivity
29 | QVQLVDSGGGLVQAGGRLRLSRAASGSIFRRYPMGWYRQAPGKERELVAAISRNSGRTYYADSVKGRFTISRDNAKITDYLQMNSLKPEDTAVYYCNADTSLAANGKFDYWGQGTQGTVSS | high polyreactivity
30 | QVQLVESAGVLVQAGGRLRLICAACGSIFDYYSLGWYRQAPGKEREMVDTISGGGGTTYYADSVKGRFTISRDNAKNSVYVHMNSLKPEDTAVYYCAADSLGYKYWGQGTQVTVSS | low polyreactivity
31 | QVQLVESGGGLVQPRGSLSLSCAASGYIFDYYDMGWYRPAPGKERELVAAISSSGGTTYYADSVKGRFTISRDNGKNTVYLQMNSLKPEDTAVYYCAAVAVLPRSDYWGQGTQVTVSS | high polyreactivity
32 | QDQLVESGGGLVQAGGSLRLSCAASGSIFWGYDMGWYRQAPGKEMELVARISYSGGSTSYADSVKGRFTISRDNAKNTVYLQMNSLKPEDTAVYYCAADEGGFWWTYPYDSWGQGTQVTVSS | low polyreactivity
33 | QVQLVESGGGLVQAGGSLRLSCAASGSIFTDNAMGWYRQAPGKERELVAAITSNGGSTYYADSVKGRFTISRDNAKNTVYLQMNSLKPEDTAVYYCAADSLYREDDYWGQGTQVTVSS | low polyreactivity
34 | QVQLVESGGGLVQAGGSLRLSCAASGLTFHVNAMGWYRQAPGKERELVAGITFSGGSTYYADSVKGRFTISRDNAKNTVYLLMNSLTPEDTAVYYCAADARFYAYYYWGQGTQVSVSS | low polyreactivity
35 | QVQLVESRGGLVQAGGSLRLSCAASGLTFVYYAMGWYRQAPGKERELVASIDYSGSSTYYADSVKGRFTISRDNAKNTVYLQMNSLKPEDTAVYYCAATDSGEYWGQGTQVTVSS | low polyreactivity
36 | QVQLVESGGGLVQAGGSLRLSCAASGRTLYIYAMGWYRQAPGKERELVAAITRRGDSTYYADSVKGRFTISRDNAKNTVYLQMNSLKPVDTAVYYCAADFPDTSSQYDPAYEYWGQGTQVTVSS | low polyreactivity
37 | QVQLVESGGGLVQAGGSLRLSCAASGIICDYNAMGWYRQAPGKERELVAAITSTDNTNYADSVKGRFTISRDNAKNTVYLQMNSLKPEDTAVYSCNTDYWLSVVYAMDYWGQGTQVTVSS | low polyreactivity
38 | QVQLVESGGGLVQAGGSLRLSCAASGSSFPRYAMAWYTPAPGKERELVAAISSGGSTYYADSVKGRFTISRDNAKNTVYLQMNSLKPEDTAVYYCTARRSRSRYDYWGQVTQVTVSS | high polyreactivity
39 | QVQLVESGGGLVQAGGSLRLSCAASGFIFWSYAMGWYRQAPGKERELVAAINTSTGRTYYADSVKGRFTISRDNAKNTVYLQMNSLKPEDTAVYYCAADLPWGPLFDYWGQGTQVTVSS | low polyreactivity
40 | QVQLVESGGGLVQAGGSLRLSCAASGSIFSDYAMGWYRQAPGEERELVAAINSGVSTSYADSVKGRFTISRDNAKNTVYLQMNSLKPEDTAVYYCAKDGSSPSPWYGGFGYWGQGTQVTVSS | low polyreactivity
41 | QVQLVESGGGLVQAGGSLRLSCAASGRIFTWYAMGWYRQAPGKERELVATISTGGSTNYADSVKGRFTISRDNAKNTVYLQMNSLKPEDTAVYYCAAKWPWSPNAFYYWGQGTQVTVSS | high polyreactivity
42 | QVQLVESGGGLVQAVGSLRLSCAASGFTFSVNAMGWYRQAPGKERELVAAITRSGGRTYYADSVKGRFTISRDNAQNTVYLQMNSLKPEDTAVYYCATPRSRTDGYDYWGQGTQVTVSS | high polyreactivity
43 | QVQLVESGGGLVQAGGSLRLSCAASGFIFNTMGWYRQAPGKERELVATMSWSDGSTYYADSVKGRFTISRDNAKNTVYLQMNSLKPEDTAVYYCAATTDALVGRPRYDYWGQGTQVTVSS | low polyreactivity
